According to PMC12363161:

Target: SDDV major capsid protein, Flag-tagged (pFlag-N3-SDDV MCP) (scale drop disease virus (SDDV))

B1: TM-B polypeptide containing the binding site with SDDV-MCP in mfTfR1 (peptide)
peptide: ADLFRNQFALATWTIQGCANSLAGDIWSL
- mortality of mandarin fish challenged with SDDV pre-incubated with TM-B, against the petB2M control (blocks m2 with m8): 40%
